Test results reported in paper PMC5341950, “Antitumor activity of a novel anti-vascular endothelial growth factor receptor-1 monoclonal antibody that does not interfere with ligand binding” (Oncotarget, 2016).

Key:
[1] = biological target: T1, recombinant VEGFR-2/Fc chimera (UniProt P35968 20-764); assay: ELISA; 96-well Maxisorp plates coated with 10 ug/ml sVEGFR-1; binding buffer PBS with 3% BSA, 1 mM CaCl2, 0.5 mM MgCl2; 2 ug/ml VEGFR-1/Fc, 4 ug/ml VEGFR-2/Fc or 1 ug/ml NRP-1/Fc added; detection with alkaline phosphatase-conjugated anti-human Fc antibody, absorbance at 405 nm; selected wells pre-incubated with 5 ug/ml D16F7 mAb for 30 min at room temperature; conditions: both partners purified
T1 construct: Vascular endothelial growth factor receptor-2 (VEGFR-2), extracellular region, fused with the Fc region of human immunoglobulins; Bought chimera; source: bought: R&D Systems

[2] = biological target: T2, recombinant VEGFR-1/Fc chimera (UniProt P17948 27-758); assay: as above; conditions: both partners purified
T2 construct: Vascular endothelial growth factor receptor-1 (VEGFR-1), extracellular region, fused with the Fc region of human immunoglobulins; Bought chimera; source: bought: R&D Systems

T1 sequence (P35968 20-764, stated change not applied): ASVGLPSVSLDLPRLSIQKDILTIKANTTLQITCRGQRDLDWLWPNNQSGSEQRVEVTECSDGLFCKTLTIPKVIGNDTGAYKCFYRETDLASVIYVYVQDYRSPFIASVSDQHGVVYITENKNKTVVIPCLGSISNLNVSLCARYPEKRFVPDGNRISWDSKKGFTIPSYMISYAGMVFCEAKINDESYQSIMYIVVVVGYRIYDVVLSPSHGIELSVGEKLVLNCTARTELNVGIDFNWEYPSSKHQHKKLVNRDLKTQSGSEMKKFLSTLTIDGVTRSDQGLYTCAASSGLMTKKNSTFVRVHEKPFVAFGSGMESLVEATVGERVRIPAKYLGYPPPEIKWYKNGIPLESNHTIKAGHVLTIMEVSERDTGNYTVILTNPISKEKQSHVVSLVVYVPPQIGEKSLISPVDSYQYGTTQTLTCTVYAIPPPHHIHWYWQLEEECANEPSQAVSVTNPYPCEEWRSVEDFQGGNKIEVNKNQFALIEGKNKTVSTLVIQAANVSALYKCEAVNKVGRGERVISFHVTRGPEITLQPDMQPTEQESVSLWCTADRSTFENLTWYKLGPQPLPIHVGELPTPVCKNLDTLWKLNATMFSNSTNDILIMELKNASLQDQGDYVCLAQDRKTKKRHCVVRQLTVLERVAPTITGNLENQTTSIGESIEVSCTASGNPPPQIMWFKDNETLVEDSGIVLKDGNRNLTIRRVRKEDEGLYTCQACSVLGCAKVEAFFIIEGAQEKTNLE

binding result [1]: binds
binding result [2]: binds
B1: native human soluble VEGFR-1 (sVEGFR-1) (receptor, UniProt P17948-2 27-687, looked up)
chain: SKLKDPELSLKGTQHIMQAGQTLHLQCRGEAAHKWSLPEMVSKESERLSITKSACGRNGKQFCSTLTLNTAQANHTGFYSCKYLAVPTSKKKETESAIYIFISDTGRPFVEMYSEIPEIIHMTEGRELVIPCRVTSPNITVTLKKFPLDTLIPDGKRIIWDSRKGFIISNATYKEIGLLTCEATVNGHLYKTNYLTHRQTNTIIDVQISTPRPVKLLRGHTLVLNCTATTPLNTRVQMTWSYPDEKNKRASVRRRIDQSNSHANIFYSVLTIDKMQNKDKGLYTCRVRSGPSFKSVNTSVHIYDKAFITVKHRKQQVLETVAGKRSYRLSMKVKAFPSPEVVWLKDGLPATEKSARYLTRGYSLIIKDVTEEDAGNYTILLSIKQSNVFKNLTATLIVNVKPQIYEKAVSSFPDPALYPLGSRQILTCTAYGIPQPTIKWFWHPCNHNHSEARCDFCSNNEESFILDADSNMGNRIESITQRMAIIEGKNKMASTLVVADSRISGIYICIASNKVGTVGRNISFYITDVPNGFHVNLEKMPTEGEDLKLSCTVNKFLYRDVTWILLRTVNNRTMHYSISKQKMAITKEHSITLNLTIMNVSLQDSGTYACRARNVYTGEEILQKKEITIRGEHCNKKAVFSRISKFKSTRNDCTTQSNVKH
notes: The methods call it 'Native human sVEGFR-1'; also called recombinant sVEGFR-1; source: bought: ReliaTech
